Assay results published in patent US12472152B2, “Molecular entrapment via homopolymer self-assembly” (Northwestern University, priority 2019, dated 2025).

Experiments:
[1] = Loading experiments: encapsulation efficiency during PPSU20 self-assembly (fluorescence of supernatant); type: physicochemical
Procedure: Loading experiments. For the loading of Nile red, nanogels were prepared using pure water and Nile red-containing (0.1 mg/mL) DMSO solutions of PPSU20. For the loading of water-soluble drugs, aqueous solutions of FITC (0.05 mg/mL), doxorubicin hydrochloride (1 mg/mL), dextran (1 mg/mL), albumin (various concentrations), GFP (0.2 mg/mL), RNA (0.2 mg/mL), DNA (0.2 mg/mL), and DMSO solutions of PPSU20 (25 mg/mL) were used. Typically, 100 μL of the corresponding aqueous solution were mixed stepwise (10 μL/step or 100 μL/step) with 50 μL of PPSU20 solution under vortex, then another 400 μL of water was added. After centrifugation at 16000×g for 10 min, fluorescence of the supernatant was measured and the encapsulation efficiencies were calculated.

[2] = PPSU nanogel biodistribution and toxicity after subcutaneous injection; type: in vivo; conditions: mice, s.c. injection, 48 h, NIRF/IVIS
Procedure: Assessment of PPSU NBM biodistribution and toxicity: Preliminary assessment of vesicular PPSU nanogel biodistribution 48 h after subcutaneous (s.c.) injection (relevant for vaccination) was performed using near infrared fluorescence (NIRF) agent cardiogreen (ICG) as previously published by the Scott lab^1.

[3] = Solubility tests using PPSU20 crystals in water and common organic solvents; type: physicochemical; conditions: in words
Description: PPSU can be synthesized from complete oxidation of poly(propylene sulfide) (PPS) (14, 15), which is known for its hydrophobic—hydrophilic transition upon oxidation (16-18). However, complete oxidation of PPS had not been previously achieved, since standard oxidation of PPS generates random copolymers of poly(propylene sulfoxide)-co-poly(propylene sulfone) (19). We successfully synthesized PPSU20 (20 sulfones, FIG. 5) using an atypically high concentration of H2O2. Highly concentrated H2O2 was generated in situ upon vacuum evaporation during the oxidizing reaction. […] Given that the chemical structure of PPSU (FIG. 1a) is characterized by a positively charged backbone with negatively charged pendent oxygen atoms (20), electrostatic repulsion among oxygen atoms (21) was expected to result in weak inter- and intra-chain associations.

trypsin protease = target: T1, trypsin protease (Sus scrofa, UniProt P00761); experiment: Trypsin digestion of FITC-BSA-loaded PPSU20 vesicular nanogels; type: biochemical; conditions: overloaded 10 mg/mL sample; trypsin 2 μg/mL, 24 h, 37° C.
T1 construct: purchased Promega
Procedure: Trypsin digestion of FITC-BSA-loaded PPSU20 vesicular nanogels. DMSO solutions of PPSU20 (200 μL, 25 mg/mL) were hydrated using 800 μL of aqueous FITC-BSA solutions (0, 0.1, 1.0, 10.0 mg/mL). DMSO was removed by dialysis after self-assembly. Negatively stained FITC-BSA-loaded PPSU20 vesicular nanogels were characterized by TEM. After removal of unloaded FITC-BSA by three rounds of centrifugation and resuspension in phosphate-buffered saline, FITC-BSA-loaded PPSU20 vesicular nanogels were subjected to digestion with trypsin protease (2 μg/mL; Trypsin Gold, Promega) for 24 h at 37° C., 80 rpm. Undigested FITC-BSA-loaded PPSU20 vesicular nanogels (i.e. no protease treatment) were included as a control. After 24 h incubation with trypsin, FITC fluorescence (Ex=490 nm, Em=525 nm) was quantified in triplicate using a SpectraMax M3 microplate reader (Molecular Devices). The percentage increase in FITC fluorescence (i.e., 100×(F(+)−F(−))/F(−)) after proteolysis was calculated, where F(+) is the fluorescence after protease treatment and F(−) is referred to the fluorescence in the absence of protease treatment.

[4] = Adsorption of FITC-BSA by preformed PPSU20 vesicular nanogels; type: physicochemical; conditions: fluorescence in 0.2 N NaOH
Procedure: PPSU20 vesicular nanogels were prepared by mixing 100 μL of water or 100 μL of aqueous FITC-BSA (1.0 mg/mL) solution with 100 μL of PPSU20 solution (25 mg/mL in DMSO) under vortex, followed by the addition of 1000 μL of water. Nanogels were collected by centrifugation and purified by 2 rounds of resuspension and centrifugation in 1000 μL of water. The preformed blank vesicular nanogels were further incubated with 100 μL of aqueous FITC-BSA (1.0 mg/mL) solution overnight, giving FITC-BSA-adsorbed nanogels after removal of free FITC-BSA by three rounds of centrifugation and resuspension in water. Blank nanogels, FITC-BSA-loaded nanogels, and FITC-BSA-adsorbed nanogels were resuspened in 1000 μL of water for fluorescence measurements or as the stocking solutions for fluorescence quantitative analysis in sodium hydroxide solution (0.2 N).

[5] = PPSU20 vesicular nanogels formed with a concentration series of FITC-BSA (DLS, zeta potential, encapsulation); type: physicochemical
[6] = 10 μL/step, mass ratio (drug/PPSU20) 0.08
[7] = 100 μL/step, mass ratio (drug/PPSU20) 0.08
[8] = 10 μL/step, mass ratio (drug/PPSU20) 0.004
[9] = 100 μL/step, mass ratio (drug/PPSU20) 0.004

T1 sequence (P00761 9-231): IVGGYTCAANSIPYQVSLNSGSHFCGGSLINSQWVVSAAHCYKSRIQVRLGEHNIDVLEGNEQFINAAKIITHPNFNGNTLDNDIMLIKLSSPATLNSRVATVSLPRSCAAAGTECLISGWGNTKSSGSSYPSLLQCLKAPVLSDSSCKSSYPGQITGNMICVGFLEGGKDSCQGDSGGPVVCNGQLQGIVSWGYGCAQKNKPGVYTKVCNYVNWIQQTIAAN

## COc1cccc2c1C(=O)c1c(O)c3c(c(O)c1C2=O)C[C@@](O)(C(=O)CO)C[C@@H]3O[C@H]1C[C@H](N)[C@H](O)[C@H](C)O1.Cl [DOX/HCl, doxorubicin hydrochloride]
[1]; [6]
  Encapsulation efficiency: >96%
[1]; [7]
  Encapsulation efficiency: >97%

## CC1(C)C(/C=C/C=C/C=C/C=C2\N(CCCCS(=O)(=O)[O-])c3ccc4ccccc4c3C2(C)C)=[N+](CCCCS(=O)(=O)[O-])c2ccc3ccccc3c21.[Na+] [ICG]
[2]
  biodistribution (organs): heart, brain and kidneys

## CCN(CC)c1ccc2nc3c4ccccc4c(=O)cc-3oc2c1 [Nile red]
[1]; [8]
  Encapsulation efficiency: >96%
[1]; [9]
  Encapsulation efficiency: >98%

## CS(C)(=O)=O [dimethylsulfone]
[3]
  Solubility in water: good water-solubility

## Albumin: FITC-labeled albumin (FITC-BSA), a model protein; Table 1 entries 5 to 8
[1]; [6]
  Encapsulation efficiency: >99%
[1]; 10 μL/step, mass ratio (drug/PPSU20) 0.4
  Encapsulation efficiency: >99%
[1]; 10 μL/step, mass ratio (drug/PPSU20) 0.8
  Encapsulation efficiency: >96%
[1]; 10 μL/step, mass ratio (drug/PPSU20) 1.2
  Encapsulation efficiency: 83%
[1]; [7]
  Encapsulation efficiency: >99%
[1]; 100 μL/step, mass ratio (drug/PPSU20) 0.4
  Encapsulation efficiency: >99%
[1]; 100 μL/step, mass ratio (drug/PPSU20) 0.8
  Encapsulation efficiency: >96%
[1]; 100 μL/step, mass ratio (drug/PPSU20) 1.2
  Encapsulation efficiency: 80%
[1]; Table 1, entry 5 to 7
  encapsulation capacity (w/w): up to 80%
  encapsulation of protein molecules from aqueous solutions: ~100%
[1]; nanoparticles contained 20% more protein than polymer by mass (Table 1, entry 8)
  EE: Over 80%
Trypsin protease
  encapsulated FITC-BSA accessible to cleavage: 30-35%
[4]; FITC-BSA-loaded vesicles, Em=518 nm
  Encapsulation efficiency: 97.8%
[4]; preformed blank vesicles incubated with FITC-BSA overnight
  adsorption efficiency: 6.0%
[5]; 10 mg/mL of protein, 3.6 mg FITC-BSA/5 mg PPSU
  protein by mass in nanogels: 72%
[5]; in the presence of 10 mg/mL of protein
  EE: 45%
[5]; loading of FITC-BSA at 0.1 mg/mL
  EE: approximately 100%
[5]; loading of FITC-BSA at 1.0 mg/mL
  EE: approximately 100%

## Dextran
[1]; [6]
  Encapsulation efficiency: >96%
[1]; [7]
  Encapsulation efficiency: >96%

## fluorescein isothiocyanate [FITC]
[1]; [8]
  Encapsulation efficiency: >99%
[1]; [9]
  Encapsulation efficiency: >99%
